{
  "source": "paper doi:10.1101/2025.11.07.687187",
  "about": "(bioRxiv, 2025)",
  "proteins": {"B1": {"name": "SPATA5 wild-type, C-terminal 3xFLAG (enzyme, human, UniProt Q8NB90 1-893, looked up)", "chain": "MSSKKNRKRLNQSAENGSSLPSAASSCAEARAPSAGSDFAATSGTLTVTNLLEKVDDKIPKTFQNSLIHLGLNTMKSANICIGRPVLLTSLNGKQEVYTAWPMAGFPGGKVGLSEMAQKNVGVRPGDAIQVQPLVGAVLQAEEMDVALSDKDMEINEEELTGCILRKLDGKIVLPGNFLYCTFYGRPYKLQVLRVKGADGMILGGPQSDSDTDAQRMAFEQSSMETSSLELSLQLSQLDLEDTQIPTSRSTPYKPIDDRITNKASDVLLDVTQSPGDGSGLMLEEVTGLKCNFESAREGNEQLTEEERLLKFSIGAKCNTDTFYFISSTTRVNFTEIDKNSKEQDNQFKVTYDMIGGLSSQLKAIREIIELPLKQPELFKSYGIPAPRGVLLYGPPGTGKTMIARAVANEVGAYVSVINGPEIISKFYGETEAKLRQIFAEATLRHPSIIFIDELDALCPKREGAQNEVEKRVVASLLTLMDGIGSEVSEGQVLVLGATNRPHALDAALRRPGRFDKEIEIGVPNAQDRLDILQKLLRRVPHLLTEAELLQLANSAHGYVGADLKVLCNEAGLCALRRILKKQPNLPDVKVAGLVKITLKDFLQAMNDIRPSAMREIAIDVPNVSWSDIGGLESIKLKLEQAVEWPLKHPESFIRMGIQPPKGVLLYGPPGCSKTMIAKALANESGLNFLAIKGPELMNKYVGESERAVRETFRKARAVAPSIIFFDELDALAVERGSSLGAGNVADRVLAQLLTEMDGIEQLKDVTILAATNRPDRIDKALMRPGRIDRIIYVPLPDAATRREIFKLQFHSMPVSNEVDLDELILQTDAYSGAEIVAVCREAALLALEEDIQANLIMKRHFTQALSTVTPRIPESLRRFYEDYQEKSGLHTL"}},
  "target": "the molecule itself",
  "test": "cryo-EM structure",
  "data": [
    {"protein": "B1", "values": [
      {"measurement": "binding result", "value": "binds"}
    ]}
  ]
}
